Assay results taken from the nanobody polyreactivity screen of Harvey et al. (2022).

Assay: yeast display, Sf9 membrane polyspecificity reagent, FACS + sequencing; frameworks hold sequencing errors
In short: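 Galactose induction of a Saccharomyces cerevisiae BJ5465 synthetic nanobody display library ran 36–48 hours. The cells were then stained for 1 hour at 4 °C with 10% biotinylated, detergent-solubilized Sf9 membrane reagent, pulled down on streptavidin microbeads and FACS-sorted into low and high (top ~1%) gates on expression and reagent-binding fluorescence. Labels for polyreactivity follow the gate of origin.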

Row | Sequence | polyreactivity (PSR sort gate)
1 | QVQLVESGGGLVQAGGSLRLSCAASGYTFPSNAMGWYRQAPGKERELVAAISSGGRTNYADSVKGRFTISRDNAKNTVYLQMNSLTPEDTAVYYCNADGGPGYPRAYDYWGQGTQVTGSS | low polyreactivity
2 | QVQLVESGGGLVQAGGSLRLICAASGRTFNRYAMGWYRTAPRTERELVAVINSASSTNYADSVKGRFTISRDNAKNTVYLQMYSLKPEDTAVYYCNADGYRWYWYTGPMDYWGQGTKVTVSS | high polyreactivity
3 | QVQLVESGGGLVQAGGSLRLSCAASGRTFGGYAMGWYRQAPGKERELVAAISRSGGSTRYADSVKGRFTISRDNAKNTVYLQMNSLKPEDTAVYYCAARQKYEILMEYWGQGTQVTVSS | high polyreactivity
4 | QVQLVESGGGLVQAGVSLRLSCAASGRTFRHNVMGRYRQAPGKERELVAAISYSGGSTHYADSVKGRFTISRDNAKNTVYLQMNSQKPEDTAVYYCNRYSYDSHFLYPFRGHDYWGQGTQVTVSS | low polyreactivity
5 | QVQLVESGGGLVQAGGSLRLSCAASGSTFIINAMGWYRQAPGKERELVAAITIGDITNYADSVKGRFTISRDNAKNTVYLQMNSLKPEDTAVYYCNKDALLFWHRDYVLDTYEYWGQGTQVTVSS | low polyreactivity
6 | QVQLVESGGGLVQAGGSLRLSCAASGSIFKVYAMGWYRQAPGKEREWVAAITWRGGSTYYADSVKGRFTISRDNAKNTVYLQMKSLKPEDTAVYYCGTEYCWKYDYWGQGTQVTVSS | low polyreactivity
7 | QVQLVESGGGLVQAGVRLRLSCADSGSTFYLNAIGWYRQAPGKERELVAAITRVGRTYYADSVKGRFTISRDNAKNTVYLQMNSLKPEDTAVYYCNALGHYKLWGLGTQVTVSS | high polyreactivity
8 | QVQLVESGGRVVQAGGILRLRCAGSGSILVHYAMGWYRQAPGKDRELVAAISRGGSTNYADSVKGRFTISRDNAKNTVYLQMNSLKPEDTAVYYCDARRPWGEYYWGQGTQVTVSS | low polyreactivity
9 | QVQLVESGGGLVQAGGSLRLSCAASGRIYYNAMGWYRQAPGKEGELVAAISGSGTRTYYADSVKGRFTISRDNAKTTVYLQMNSQKPEDTAVYYCARYYSHYSTYDYVRYGYWGQGTQVTVSS | high polyreactivity
10 | QVQLVESGGGLVQAGGSLRLSCAASGRTFYVNTMGWYRPAPGKEREFVAAITWRDGSTYYADSVKGRFTISRDNAKNTVYPQMNSLKPEDTAVYYCAARNSHDGYYDEYYYWGQGTQVTVSS | low polyreactivity
11 | QVQLVESGGGLVQAGGSLRLSCAASGRIFQPYAMGWYRQAPGKERELVAAITRRAGSTYYADSVKGRFTISRDNAKNTVYLQMNSLKPEDTAVYYCAARGLYWAYEMEYWGQGTQVTVSS | low polyreactivity
12 | QVQLVESGGGLVQAGGSLRLTCAASGFTFYLNAMGWYRQAPGKERELVAAITDDGDSTYYADSVKGRFTISRDNAKNTVYLQMNSLKPEDTAVYYCNTVYGPDLDGTEYDYWGQGTQVTVSS | low polyreactivity
13 | QVQLVESGGGLVQAGGSLRLSCAASGRIFWDNAMGWYRQAPGKERELVAAISDSVVITYYADSVKGRFTISRDNAKNTVYLQMNSLKPEDTAVYYCNTDARYDEYDEFDYWGQGTQVTVSS | low polyreactivity
14 | QVQLVESGGGLVQAGGSLRLSCAASGSTFPVNAMGWYRQAPGKEREMVASITWGDGSTYYADSVKGRFTISRDNAKNTVYLQMNSLKPEDTADYYCNKDFFYGYDAASYRPEYDYWGQGTQVTVSS | low polyreactivity
15 | QVQLVESGGGIVQAGGRLRLRCAASGFTFGRYAMGWYRQEPGKEREFVAAITWSGGGTYYADSVKGRFTISRDNAKNTVYLQMNSLKPEDTAVYYCAADRRAYGGGYLGQGTQVTVSS | high polyreactivity
16 | QVQLVESGGGLVQAVGSLRLSCAASGNIFHRNAMGWYRQAPGKEMELVAAISWSGGSTYYADSVKGRFTISRDNAKNTVYLQMNSLKPEDTAVYFCNAYYYYRFKPSHPGLRSYYWGQGTQVTVSS | high polyreactivity

Row | Sequence | polyreactivity (PSR sort gate)
17 | QVQLVESGGGLVQAGGSLRLSCAASGFTFRIYAMGWYRQAPGKERELVATISWSGTSTYYADSVKGRFTISRDNAKNTVYLQMNSLKPEDTAVYYCAKDGVSFYWLNKYYYWGQGTQVTVSS | low polyreactivity
18 | QVQLVESGGGLVQAGGSLRLTCAASGSTFAGNAMGWYRQATGKERELVAAIDSSTGSTYYADSVKGRFTISRDNAKNTVYLQMNSLKPEDSAVYYCNKTSFLVKLDYWGQGTQVTVSS | low polyreactivity
19 | QVQLVESGGGLVQAGGSLRLSCAASGSIFTDNAMGWYRQAPGKERELVAAITGRGGNTYYADSVKGRFTISRDNAKNTVYLQMNSLKPEDTAVYYCAARIFRTRKPLGYWGQGTQVTVSS | high polyreactivity
20 | QVQLVESGGGLVQAGGSLRLSCAASGIIFRTNAMGWYRQAPGKEREFVAAISAGGTRTYYADSVKGRFTISRDNAKNTVYLQMNSLKPEDTAVYYCAAASGYDYWGQGTQVTVSS | high polyreactivity
21 | QVQLVESGGGLVQAGGSLRFSCAASGRIFYLNAMGWYRQAPGKERELVAAISRSGGRTYYADSEKGRFTISRDNAKHTVYLQMNSLKPEDTAVYYCAADTAGATPERNYWGQGPQVTVSS | high polyreactivity
22 | QVQLVESGGGLVQAGGSIRLTCAASGSTFGKYAMGWYRQAPGKERELVARIDSGDGTYYADSLKGRFTISRDNAKNTVYLKMNSLKAEDTAVYYCAAGYGARRLTYFWPQYARYDYWGQGTQVTVSS | high polyreactivity
23 | QVQLVKSGGGLVQAGGSLRLSCAASGSTFYNAMGWYRQAPGKERELVAAISIGGSTYYADSVKGRFTNSRDNAKNTVYLQMNSLKPEDTAVYYCNTETGPSPVPVYDTEFDSWGQGTQVTVSS | low polyreactivity
24 | QVQLVESGGGLVQAGGSLRLSCAASGSTFYVYAMGWYRQAPGKERELVAAITTGGSTYYADSVKGRFTISRDNAKNTVYLQMNSLKPEDTAVYYCAADDPDPYDVPSYDYWGHGTQVTVSS | low polyreactivity
25 | QVQLVESGGGLVQAGGSLRLSCAASGYIFYGYVMGWYRQAPGKERELVAGITYSGGGGTHYADSVKGRFTISRDNAKNTVYLQMNSLKPEDNAVYYCAKADPQLNRTYYSYGMDYWGQGTQVTVSS | low polyreactivity
26 | QDHIVESGGGLVQAGGSLRLSCAASGSTFKLYAMGWYRQAPGKERELVAAITRSGTRTYYADSVKGRFTISRDNAKNTVYLQMNILKPEDTAVYYCAADGYRISGYDYWGQGTQVTVSS | high polyreactivity
27 | QVQLVESGGGLVQAGGSLRLSCAASGRTFISNAMGWYRQAPGKERELVATISRRGGITYYADSVKGRFTISRDNSKNTVYLQMNSLKPEDTAVFYCNARNYPQGIYYWGQGTQVTLSS | high polyreactivity
28 | QVQLVEAGGGLVQAGGSLRLSCAASGITYSKYANGWYIQAPWKERELVAAISQRGGSTYYADSVKGRFTISRDNAKNTVYLQMNSLKPEDTAVYYCNAEFYWSIIAYEYWGQGTQVTVSS | high polyreactivity
29 | QVQLVESGGGLVQAGGSLRLSCAASGSTFFLYAMGWYRQAPGKERELVAAISTTGGSTNYADSVKGRFTISRDNAKNTVYLQMNSLKPEDTAVYYCAAGPSAQSIYDHWGQGTQVTLSS | low polyreactivity
30 | QVQLVESAGGLVQAGGSLRLSCAPSGRIFYYNAMGWYRQAPGKERELVAAITSGGSTNYADSVKGRFTISRDNAKNTVYLQMNSLKPEDTAVYYCAADYYFYVAGVHYDYWGQGTQVTVSS | low polyreactivity
31 | QVQLVETGGGLVQAGGILRLSCAASGSTFYRNAMGWYRQAPGKERELVAAINSTDSTNYADSVKGRFTISRDNAKNTVYLQMNSLKPEDTAVYFCAAVGVNLATAEYDYWGQGTQVTVSS | low polyreactivity
32 | QVQLVESGGGLVQAGGSLRLSCAASGGIFKRYAMGWYRQAPGKERELVAAISGRGGGTYYADSVKGRFTISRDNATNTVYLQMTSLKPEDTAVYYCNARLSWSAFGYWGQGTQVTVSS | high polyreactivity
